Data on 19 molecules can be found in patent US20090035317A1, “Peptides binding to vascular endothelial growth factor” (priority 2007, published 2009).

Bridge positions count the residues as written; N and C are the ends. Ends that are not written are not given here.

The test system of test [1] is biotinylated VEGF. The test can be described thus: First order dissociation rate constants (koff) of cell-surface displayed peptides, flow cytometry. The format is binding. To be noted: peptide displayed on bacterial cell surface; for RT koff: room temperature. The method, then:
(§1) Cells displaying VEGF-binding peptides were first incubated with biotinylated VEGF and allowed to equilibrate at 4° C. After centrifugation, excess VEGF was removed. The cells were then resuspended in buffer, such that the concentration of cells was diluted 1:10, as compared to the VEGF-labeling step. Cells were allowed to incubate in buffer at room temperature or 37° C. for times varying from 5 minutes to 21 hours to allow dissociation of VEGF from the cell surface. After the appropriate amount of time, the cells were placed on ice to stop the dissociation, and streptavidin-phycoerythrin (SAPE) was added for fluorescence labeling. After centrifugation, excess SAPE was removed, and cellular fluorescence was measured by flow cytometry. Fluorescence data as a function of dissociation time was used to determine koff.

In test [2] the test system is VEGF. The test can be described thus: Clone characterization: off-rate from VEGF at room temperature (Example 1). Type of test: binding. The conditions noted are these: 10 nM VEGF labeling, FIG. 3, FIG. 4. The protocol:
Initial measurements of off-rate were made for each clone in order to narrow down the search for the best binding peptide. Each clone was labeled with 10-nM VEGF. Excess VEGF was washed away, and the protein was allowed to dissociate for 15 and 30 minutes at room temperature. SAPE was added, and secondary labeling was performed on ice. Excel's Regression function was used to calculate koff for each peptide using three time points (0, 15, and 30 minutes) and the standard error for the regression.
Each clone was incubated with 10 nM VEGF and allowed to come to equilibrium. The excess VEGF was washed away, and the cells were separated into 4 aliquots and diluted 1/10 in room temperature PBS. SAPE was added to the appropriate aliquot after 5, 10, 15, and 30 minutes for secondary labeling on ice. The mean fluorescence at these time points was used to determine koff. In most cases, the t=30 minute point could not be incorporated into the regression.
Target sequence in this assay (P15692 207-315 limits assumed): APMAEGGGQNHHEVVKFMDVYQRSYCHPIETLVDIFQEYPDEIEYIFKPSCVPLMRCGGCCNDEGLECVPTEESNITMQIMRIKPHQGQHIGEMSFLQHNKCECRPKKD

Test [3] has as its system VEGF. The test can be described thus: Specificity: retention of VEGF binding fluorescence in BSA and serum. The conditions noted are these: 10-nM VEGF; serum dilutions; FIG. 5. The protocol:
In addition, measurements of specificity were performed for the four peptides whose off-rate could be calculated. Each clone was incubated with 10-nM VEGF in varying dilutions of BSA and serum followed by secondary labeling with SAPE at the same BSA/serum concentration. It was assumed that a specific peptide would retain more fluorescence upon serum addition than a non-specific peptide. The serum was first prepared by incubation with cells overexpressing the CPXopt template, spinning down the cell pellet and any bacteria-specific proteins bound to them, and removing the supernatant for incubation with the selected clones. Adding BSA up to physiological conditions decreased the mean fluorescence of each clone by an average of ˜40%, seemingly indicating some degree of specificity. […] FIG. 5 gives the fluorescence remaining after serum addition relative to initial fluorescence (at a serum dilution of 1/100), which was taken to be a measure of the specificity of the interaction between the peptide and VEGF. […] Therefore, the change in fluorescence of a gated population of positive binding cells was used to determine the specificity metric. In some cases with undiluted serum, a significant fraction of cells (>˜1%) still fell into this positive, and the fluorescence of this small fraction of cells was used to calculate the specificity. […]
Target sequence in this assay (P15692 207-320 limits assumed): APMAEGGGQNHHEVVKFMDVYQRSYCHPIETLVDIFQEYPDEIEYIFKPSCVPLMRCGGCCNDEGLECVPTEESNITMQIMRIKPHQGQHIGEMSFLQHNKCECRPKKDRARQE

The test system of test [4] is VEGF. The test can be described thus: Equilibrium binding of displayed clones with VEGF at 1 nM and 10 nM. The conditions noted are these: displayed on cell surface.
Target sequence in this assay (P15692 207-320 limits assumed): as above
The test system of test [5] is biotinylated recombinant murine VEGF (rmVEGF). The test can be described thus: Murine cross-reactivity, flow cytometry. To be noted: rmVEGF at 25 and 250 nM. The format is binding. The protocol:
Cells expressing VEGF-binding peptides were incubated with biotinylated recombinant murine VEGF (rmVEGF). Fluorescence labeling was performed with SAPE as previously described. The first seven clones listed in Table 5 as well as v114 were assayed for cross-reactivity with rmVEGF. All of the ligands analyzed bound rmVEGF at concentrations of 25 and 250 nM, as measured by flow cytometry.
On the technique in general: A flow cytometer gives signals particle by particle.

The target of test [6] is T1, VEGF (Homo sapiens, UniProt P15692).
T1 sequence (P15692 214-315 limits assumed): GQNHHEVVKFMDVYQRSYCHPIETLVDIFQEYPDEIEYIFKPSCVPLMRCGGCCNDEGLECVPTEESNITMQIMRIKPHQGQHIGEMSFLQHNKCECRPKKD
The conditions noted are these: Fairbrother et al. (1998); read-out: reported equilibrium dissociation constant (KD); cited from earlier work.

In test [7] the target is T2, vascular endothelial growth factor (VEGF) (UniProt P15692-4 27-191, limits assumed, biotinylated).
T2 construct: Soluble biotinylated VEGF used to label cells that display the peptides; also called biotinylated VEGF
The test can be described thus: flow cytometry, peptide displayed on bacterial cell surface, dissociation of biotinylated VEGF at 37° C. The method, then:
as §1

The target of test [8] is T2, vascular endothelial growth factor …. The test can be described thus: comparison of room temperature koff values of Table 5, flow cytometry on displayed peptides. The method, then:
as §1

Test [9] has the same target. The test can be described thus: apparent equilibrium KD measured from the bacterial cell surface, flow cytometry.
Test [10] has the same target. The test can be described thus: flow cytometry, peptide displayed on bacterial cell surface, dissociation of biotinylated VEGF at room temperature. The method, then: as §1
Test [11] shares this target. The test can be described thus: flow cytometry competition; soluble v114 premixed with biotinylated VEGF; competitor: displayed L3.F5A.01, compared with displayed L2.F4.04. The protocol: Biotinylated VEGF was first mixed with various concentrations of soluble v114 peptide (Anaspec); the ratio of soluble peptide to VEGF ranged from ˜2:1 to 5000:1. Cells expressing VEGF binding peptides were then incubated with this VEGF/peptide mixture and allowed to equilibrate at 4° C. After centrifugation, unbound protein/peptide was removed, and the cells were resuspended in SAPE for fluorescence labeling.

For test [12] the target is unchanged. The test can be described thus: comparison of 37° C. koff values of Table 5, flow cytometry on displayed peptides. The protocol: as §1

As usually defined, the koff is the first-order rate constant of dissociation. Low values mean a long-lived complex, high ones a short-lived complex.

T2 sequence (P15692 other isoform, or with tags, fused parts or gaps limits assumed): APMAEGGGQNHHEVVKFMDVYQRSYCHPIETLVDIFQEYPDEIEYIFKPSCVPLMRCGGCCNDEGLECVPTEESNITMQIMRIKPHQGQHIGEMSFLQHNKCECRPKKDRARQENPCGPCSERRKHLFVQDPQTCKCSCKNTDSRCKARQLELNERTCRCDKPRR
Sequence of biotinylated VEGF (P15692 207-320 limits assumed): as the sequence (P15692 207-320 limits assumed) above
Sequence of biotinylated recombinant murine VEGF (rmVEGF) (Q00731 205-317 limits assumed): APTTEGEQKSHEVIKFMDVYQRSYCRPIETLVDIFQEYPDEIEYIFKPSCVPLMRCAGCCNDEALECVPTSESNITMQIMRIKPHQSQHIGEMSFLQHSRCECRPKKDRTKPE

Consider “AKRSSYSMWGAMPGGGSGGGNFGYGKWEWDYGKWLEKV [Clone L3.F5A.03, AKRSSYSMWGAMP-GGGSGGG-NFGYGKWEWDYGKWLEKV]”, for which, in [1], the “37° C. koff” value was 0.0006 s⁻¹ and the RT koff worked out at 4.28e-05 s⁻¹.

Take CPVQTMWDWECMRAFIEG [Clone L2.F3B.08]: in [2], the “dissociation rate (in words)” value was “good dissociation kinetics”. Further, in test [3], the “effect of serum addition on VEGF binding fluorescence” value is given as “loses more fluorescence upon serum addition than does L2.F4.04”. In test [4], the “fluorescence labeling when bound to VEGF” value is given as “bright fluorescence signals”. In test [1], the “37° C. koff” value turned out to be 0.0042 s⁻¹ and the RT koff stood at 0.0072 s⁻¹.

On to “GPGWWLWDWDNLGARRGGL (VEGF-binding peptide) [Clone L2.F3A.10]”, for which the “fluorescence labeling when bound to VEGF” value in test [4] is reported as “better labeling”.

For “HQQLQYWDWIEAVVHNG (VEGF-binding peptide) [Clone L2.F3A.05]”, the “dissociation rate (in words)” value in test [2] is given as “slow dissociation rates”.

In the case of NFGYGKWEWDYGKWLEKVG [Clone L2.F4.04], the “dissociation rate (in words)” value in test [2] is “slow dissociation rates”. The “fluorescence labeling when bound to VEGF” value in test [4] was “bright fluorescence signals”. Besides, in test [1], the “37° C. koff” value came to 0.0013 s⁻¹ and the RT koff was 0.0013 s⁻¹.

Consider “SKLKTLLWQQGGGSGGGNFGYGKWEWDYGKWLEKV [Clone L3.F6.02, SKLKTLLWQQ-GGGSGGG-NFGYGKWEWDYGKWLEKV]”, for which, in test [1], the “37° C. koff” value was 0.0014 s⁻¹ and the RT koff worked out at 0.000291 s⁻¹.

For the molecule “SSKCGRWGETPCLAEGGGSGGGNFGYGKWEWDYGKWLEKVG [Clone L3.F5A.01, SSKCGRWGETPCLAE-GGGSGGG-NFGYGKWEWDYGKWLEKVG]”, in [1], the “37° C. koff” value came to 0.00012 s⁻¹ and the RT koff was determined as 2e-05 s⁻¹.

With “SYVLKEWSVPSWGKPGGGSGGGNFGYGKWEWDYGKWLEKV [Clone L3.F6.01, SYVLKEWSVPSWGKP-GGGSGGG-NFGYGKWEWDYGKWLEKV]”, in [1], the “37° C. koff” value was found to be 0.00025 s⁻¹ and the RT koff was found to be 0.00011 s⁻¹.

Consider “VEPNCDIHVMWEWECFERL [v114, soluble peptide from Anaspec; positive control]”, for which the “binding of rmVEGF” value in test [5] is “bound rmVEGF”. The Kd in [6] is 110 nM.

Consider “VTSRYEMREDGSWKKGGGSGGGNFGYGKWEWDYGKWLEKVG [Clone L3.F5A.02, VTSRYEMREDGSWKK-GGGSGGG-NFGYGKWEWDYGKWLEKVG]”, for which, in [1], the “37° C. koff” value was 0.00074 s⁻¹.

On to “WKELRFWDWEGGNHKKCVT (VEGF-binding peptide) [Clone L2.F3B.12]”, for which the “dissociation rate (in words)” value in test [2] is reported as “slow dissociation rates”.

B1: L3.F6.02 (peptide)
peptide: SKLKTLLWQQGGGSGGGNFGYGKWEWDYGKWLEKV
modifications: Displayed on the E. coli surface as a fusion to CPXopt; the letters do not carry the scaffold.
notes: Peptide 2 is printed without the final G of L2.F4.04; not shown: CPXopt bacterial display scaffold that carried the peptide on the cell surface
In the case of B1, the koff in test [7] is 0.0014 s⁻¹; in test [10], 0.000291 s⁻¹. Also, the “fold improvement (slower dissociation) against the monodendate parent peptide L2.F4.04” value in [8] was in the range of 4 to 65 fold. Also, the Kd in [9] came to 5 nM.

B2: soluble v114 peptide (Anaspec) (peptide)
peptide: VEPNCDIHVMWEWECFERL
notes: also called Genentech v114 peptide
B2: in test [11], the “fold increase in the concentration of v114 required to block 50% of VEGF binding, bidentate peptide against parent peptide” value is not below 5 fold.

B3: L3.F5A.03 (peptide)
peptide: AKRSSYSMWGAMPGGGSGGGNFGYGKWEWDYGKWLEKV
modifications: Displayed on the E. coli surface as a fusion to CPXopt; the letters do not carry the scaffold.
notes: as for B1
On to B3, for which the figures for the koff in test [7] and in [10] were 0.0006 s⁻¹ and 4.28e-05 s⁻¹, respectively. In addition, the Kd in [9] was found to be 3.7 nM.

B4: L3.F6.01 (peptide)
peptide: SYVLKEWSVPSWGKPGGGSGGGNFGYGKWEWDYGKWLEKV
modifications: Displayed on the E. coli surface as a fusion to CPXopt; the letters do not carry the scaffold.
notes: as for B1
With B4, the figures for the koff in test [7] and in test [10] were 0.00025 s⁻¹ and 0.00011 s⁻¹, respectively. The Kd in [9] came out at 3.5 nM.

B5: L3.F5A.02 (peptide)
peptide: VTSRYEMREDGSWKKGGGSGGGNFGYGKWEWDYGKWLEKVG
notes: not shown: CPXopt bacterial display scaffold (carrier)
The molecule B5 displayed a dissociation rate constant (koff) in [7] of 0.00074 s⁻¹. In test [9], the Kd is 2.6 nM.

B6: L2.F4.04 (peptide)
peptide: NFGYGKWEWDYGKWLEKVG
notes: as for B5
As to B6, the off-rate (koff) in [7] and in test [10] was 0.0013 s⁻¹ in each case. For the same molecule, the Kd in test [9] is 6.1 nM.

B7: L2.F3B.08 (peptide)
peptide: CPVQTMWDWECMRAFIEG
modifications: disulfide 1-11 (inferred)
notes: as for B5
For B7, the figures for the off-rate (koff) in test [7] and in test [10] were 0.0042 s⁻¹ and 0.0072 s⁻¹, respectively. Also, the Kd in [9] amounted to 17.8 nM.

B8: L3.F5A.01 (peptide)
peptide: SSKCGRWGETPCLAEGGGSGGGNFGYGKWEWDYGKWLEKVG
notes: also called bidentate peptide L3.F5A.01; not shown: CPXopt bacterial display scaffold (carrier)
B8: the “fold improvement (slower dissociation) against the monodendate parent peptide L2.F4.04” value in test [12] was not above 12 fold; in test [8] it was 4 to 65 fold. The dissociation rate constant (koff) in test [7] amounted to 0.00012 s⁻¹; in test [10], 2e-05 s⁻¹. Moreover, in test [9], the Kd came to 2.1 nM.
